What was measured:
[1] = target: T1, interleukin-2 beta receptor (SYMANSIS, #4122H) to which a human immunoglobulin Fc region was linked (UniProt P14784 27-239, limits assumed); assay: SPR (Biacore T200); receptor-Fc captured on anti-human Ig CM5 chip, analog flowed; relative to analog 1 = 100%
T1 construct: Bought receptor-Fc, captured on anti-human immunoglobulin antibody; also called IL-2Rβ; CD122; not shown: human immunoglobulin Fc region
T1 sequence (looked up): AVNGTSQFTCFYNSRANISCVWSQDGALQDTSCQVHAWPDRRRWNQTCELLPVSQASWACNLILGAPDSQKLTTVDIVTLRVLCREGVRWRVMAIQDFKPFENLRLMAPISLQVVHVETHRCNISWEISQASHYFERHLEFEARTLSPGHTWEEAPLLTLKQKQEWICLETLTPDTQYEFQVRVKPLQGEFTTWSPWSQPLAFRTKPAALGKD
Experimental: In order to measure the binding affinities of the interleukin-2 analogs obtained in Example 4 for each of interleukin-2 alpha and beta receptors, surface plasmon resonance (SPR, BIACORE T200, GE Healthcare) was used. The binding affinities of the prepared analogs for the alpha and beta receptors were measured, and the binding affinity of each of the prepared analogs was compared with that of interleukin-2 analog 1 (aldesleukin).
First, an anti-human immunoglobulin antibody (Abcam, #ab97221) was immobilized to a CM5 chip (GE healthcare) to about 5,000 resonance unit (RU) through amine coupling, and then the interleukin-2 alpha receptor ([…], #4102H) or interleukin-2 beta receptor ([…], #4122H), to each of which a human immunoglobulin Fc region was linked, was bound to the immunoglobulin antibody using an antigen-antibody binding reaction and thus finally immobilized. Thereafter, the recombinant interleukin-2 analog prepared above was diluted with HBS-P+ buffer (Cytiva, BR100671) to various concentrations by serial dilution, and the diluted samples were allowed to flow through CM5 chips, to which the interleukin-2 receptors were finally immobilized, to measure the binding affinity of each interleukin-2 receptor. […] Upon the completion of the measurement, the binding affinity of the receptor was evaluated according to the 1:1 binding fitting model in the Biaevaluation program.

[2] = target: T2, interleukin-2 alpha receptor (SYMANSIS, #4102H) to which a human immunoglobulin Fc region was linked (UniProt P01589 22-213, limits assumed); assay: SPR (Biacore T200); receptor-Fc captured on anti-human Ig CM5 chip
T2 construct: Bought receptor-Fc, captured on anti-human immunoglobulin antibody; also called IL-2Rα; CD25; not shown: human immunoglobulin Fc region
T2 sequence (looked up): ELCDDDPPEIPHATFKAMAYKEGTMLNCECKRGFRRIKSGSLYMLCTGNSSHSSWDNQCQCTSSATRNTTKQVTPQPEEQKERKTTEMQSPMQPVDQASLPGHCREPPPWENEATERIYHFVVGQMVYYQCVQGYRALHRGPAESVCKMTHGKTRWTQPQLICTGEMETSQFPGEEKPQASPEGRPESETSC

B1: interleukin-2 analog 20 (ligand)
chain: PTSSSTKKTQLQLEHLLLDLQMILNGINNYKNPKLTAMLTKKFYMPKKATELKHLQCLEEELKPLEEVLNLAQSKNFHLRPRDVVSNINVFVLELKGSETTFMCEYADETATIVEFLNRWITFSQSIISTLT
Relative binding affinity (%) [1]: 156%
binding result [2]: no binding

B2: interleukin-2 analog 15 (ligand)
chain: PTSSSTKKTQLQLEHLLLDLQMILNGINNYKNPKLTAMLTKKFYMPKKATELKHLQCLEEELKPLEEVLNLAQSKNFHLRPRELISNINVIVLELKGSETTFMCEYADETATIVEFLNRWITFSQSIISTLT
Relative binding affinity (%) [1]: 98.1%
binding result [2]: no binding

B3: interleukin-2 analog 53 (ligand)
chain: PTSSSTKKTQLQLEHLLLDLQMILNGINNYKNPKLTAMLTKKFYMPKKATELKHLQCLEEELKPLEEVLNLAQSKNFHFDPRELISNINVFVLELKGSETTFMCEYADETATIVEFLNRWITFSQSIISTLT
Relative binding affinity (%) [1]: 691%
binding result [2]: no binding

B4: interleukin-2 analog 52 (ligand)
chain: PTSSSTKKTQLQLEHLLLDLQMILNGINNYKNPKLTAMLTKKFYMPKKATELKHLQCLEEELKPLEEVLNLAQSKNFHFDPRDLISNINVFVLELKGSETTFMCEYADETATIVEFLNRWITFSQSIISTLT
Relative binding affinity (%) [1]: 3820%
binding result [2]: no binding

B5: interleukin-2 analog 19 (ligand)
chain: PTSSSTKKTQLQLEHLLLDLQMILNGINNYKNPKLTAMLTKKFYMPKKATELKHLQCLEEELKPLEEVLNLAQSKNFHLDPRDLISNINVFVLELKGSETTFMCEYADETATIVEFLNRWITFSQSIISTLT
Relative binding affinity (%) [1]: 455%
binding result [2]: no binding

B6: interleukin-2 analog 12 (ligand)
chain: PTSSSTKKTQLQLEHLLLDLQMILNGINNYKNPKLTAMLTKKFYMPKKATELKHLQCLEEELKPLEEVLNLAQSKNFHLRPRDLISNINVIVLELKGSETTFMCEYADETATIVEFLNRWITFSQSIISTLT
Relative binding affinity (%) [1]: 166%
binding result [2]: no binding

B7: interleukin-2 analog 21 (ligand)
chain: PTSSSTKKTQLQLEHLLLDLQMILNGINNYKNPKLTAMLTKKFYMPKKATELKHLQCLEEELKPLEEVLNLAQSKNFHFDPRDVVSNINVFVLELKGSETTFMCEYADETATIVEFLNRWITFSQSIISTLT
Relative binding affinity (%) [1]: 14100%
binding result [2]: no binding

— patent US20260242436A1 (HANMI PHARM, published 2026)
